Source: patent US20230349919A1 (Regeneron, published 2023)

Columns and labels:
[1] = target: T1, human IL-4Rα (hIL-4Rα) monomeric protein (human, UniProt P24394 26-232, limits assumed); assay: Biacore (SPR)
T1 construct: also called hIL-4Rα antigen; barcoded hIL-4Rα

[2] = target: T1, human IL-4Rα (hIL-4Rα) monomeric protein; assay: Biacore (SPR); negative log10 of Kd
[3] = target: T1, human IL-4Rα (hIL-4Rα) monomeric protein; assay: barcoded-antigen count on source cell (scRNA-seq)

Binder | Kd [1] | negLog10Kd [2] | REGN560.L15_ab_raw [3]
Table 1 Line # 2 antibody (BM_Plasma_cell) (antibody, human IgG4, V domains shown, Cloned with human IgG4/human Igk constants for Kd; barcode counts are of the source cell's own IgG) VH: EVRLVESGGGLVQPGRSLRLSCAASGFTFDDYAMHWVRQAPGRGLEWVSGISWKGDALGYADSVKGRFTISRDNAKNSLYLQMSSLRAEDTALYYCAKDTGSYHYYYGLDVWGQGTTVAVSS VL: DIQMTQSPSSLSASVGDRVTITCRASQGIRTDLGWYQQKPGKAPKRLIYAASNLHGGVPSRFSGTGSGTDFTLTISSLQPEDFATFFCLQHYSYPLTFGGGTKVEIK | 0.161 µM | 6.79 | 6540 counts
Table 1 Line # 41 antibody (SP_Plasma_cell) (antibody, human IgG4, V domains shown, Cloned with human IgG4/human Igk constants for Kd; barcode counts are of the source cell's own IgG) VH: EVQLVESGGGLVQPGRSLRLSCAASGFTFDDYAMHWVRQAPGRGLEWVSGISWKGDALGYADSVKGRFTISRDNAKNSLYLQMSSLRAEDTALYYCAKDTGSYHYYYGLDVWGQGTTVTVSS VL: DIQMTQSPSSLSASVGDRVTITCRASQGIRNDLGWYQQKPGKAPERLIYAASNLQSGVPSRFSGSGSGTEFTLTISSLQPEDFATFYCLQHYSYPLTFGGGTKVEIK | 0.15 µM | 6.82 | 2460 counts
Table 1 Line # 34 antibody (SP_B_cell) (antibody, human IgG4, V domains shown, Cloned with human IgG4/human Igk constants for Kd; barcode counts are of the source cell's own IgG) VH: EVQLVASGGDLVQPGRSLRLSCAASGFTFDDFGMHWVRQAPGKGLEWVSGISWNGGHMGYAASVKGRFTMSRDNAKNSLYLQMNSLRVEDTALYYCVKEFSSSWYGFFDLWGRGTLVTVSS VL: DIQMTQSPSSLSASVGDRVTITCRASQGLGNSVAWYQQKPGQIPRLLISAAASLQSGVPSRFSGSGSGTDFTLTISSLQPEDVATYYCQNYNSAPRTFGQGTNVEIK | 0.0342 µM | 7.47 | 6890 counts
Table 1 Line # 46 antibody (SP_Plasma_cell) (antibody, human IgG4, V domains shown, Cloned with human IgG4/human Igk constants for Kd; barcode counts are of the source cell's own IgG) VH: EVQLEASGGDLVQPGRSLRLSCAASGFIFDDFGMHWVRQAPGKGLEWVSGISWNGGHIGYADSVKGRFTISRDNAKNSLYLQMNSLRAEDTALYYCAKEHSSSWYGFFDFWGRGTLVTVSS VL: DIQMTQSPSSLSASVGDRVTITCRASQGLSNSVAWYQQKPGQIPRLLISAAASLQSGVPSRFSGSGSGTDFTLTISRLQPEDVATYYCQNYNSAPRTFGQGTNVEIK | 0.0492 µM | 7.31 | 1520 counts
Table 1 Line # 31 antibody (SP_B_cell) (antibody, human IgG4, V domains shown, Cloned with human IgG4/human Igk constants for Kd; barcode counts are of the source cell's own IgG) VH: EVQLVESGGGLVQPGRSLRLSCAASGFTFDDYAMHWVRQAPGKGLEWVSGISWNSGNIGYADSVKGRFTISRDNANNSLYLQMNSLRAEDTALYYCAKDYSSAWYGYFDYWGQGTLVTVSS VL: not shown | 0.133 µM | 6.88 | 8520 counts
Table 1 Line # 16 antibody (BM_Plasma_cell) (antibody, human IgG4, V domains shown, Cloned with human IgG4/human Igk constants for Kd; barcode counts are of the source cell's own IgG) VH: EVQLVESGGGLVQPGRSLRLSCAASGFTFDDYGMHWVRQAPGKGLEWVSGISWNSGHIGYADSVKGRFTISRDNAKNSLNLQMNSLRAEDTALYYCAKDISSSWYGYFDLWGRGTLVTVSS VL: DIQMTQSPSSLSASVGDRVTITCRASQGISNFLAWFQQKPGKVPKLLIYAASTLQSGVPSRFSGSGSGTDFTLTISSLQPEDVATYYCQEYNSAPRTFGQGTKVEIK | 0.00804 µM | 8.09 | 2370 counts
Table 1 Line # 7 antibody (BM_Plasma_cell) (antibody, human IgG4, V domains shown, Cloned with human IgG4/human Igk constants for Kd; barcode counts are of the source cell's own IgG) VH: EVQLVESGGGLVQPGRSLRLSCAASGFTFDDYAMHWVRQAPGKGLEWVSGISWNGASIGYADSLKGRFTISRDNAKNSLYLQMNSLRSEDTALFYCARDYSSAWYGYFDYWGQGTLVTVSS VL: DIQMTQSPSSLSASVGDRVTITCRASQDISNYLAWYQQKPGKVPKLLIYAASTLQSGVPSRFSGSGSGTDFTLTISSLQPEDVATYYCQNYNSVPRTFGQGTKVEIK | 0.0155 µM | 7.81 | 4140 counts
Table 1 Line # 15 antibody (BM_Plasma_cell) (antibody, human IgG4, V domains shown, Cloned with human IgG4/human Igk constants for Kd; barcode counts are of the source cell's own IgG) VH: EVQLVESGGALVQPGRSLRLSCAASGFAFDDYAMHWVRQAPGKGLEWVSGISWNGASLGYADSLKGRFTISRDNAKNSLYLQMNSLRSEDTALFYCARDYSSAWYGYFDYWGQGTLVTVSS VL: DIQMTQSPSSLSASVGDRVTITCRASQDISNYLAWYQQKPGKVPKLLIYAASTLQSGVPSRFSGSGSGTDFTLTISSLQPQDVATYYCQNYNSVPRTFGQGTKVEIK | 0.0199 µM | 7.7 | 2580 counts
Table 1 Line # 35 antibody (SP_B_cell) (antibody, human IgG4, V domains shown, Cloned with human IgG4/human Igk constants for Kd; barcode counts are of the source cell's own IgG) VH: EVQLVESGGGLVKPGGSLRLSCAASGFTFSSYSMNWVRQAPGKGLEWVSSISSSSSYIYYADSVKGRFTISRDNAKNSLYLQMNSLRAEDTAVYYCARDRSSSPLENWGQGTLVTVSS VL: DIQMTQSPSSVSASVGDRVTITCRASQGISSWLAWYQQKPGKAPKLLIYAASSLQSGVPSRFSGSGSGTDFTLTISSLQPEDFATYYCQQANSFPITFGQGTRLEIK | 0.0293 µM | 7.53 | 6710 counts

Other lines, results leading:

Kd [1] | negLog10Kd [2] | REGN560.L15_ab_raw [3] | Binder
0.0414 µM | 7.38 | 2170 counts | Table 1 Line # 18 antibody (BM_Plasma_cell) (antibody, human IgG4, V domains shown, Cloned with human IgG4/human Igk constants for Kd; barcode counts are of the source cell's own IgG) VH: EVQLVQSGAEVKKPGESLKISCKGSGYRFTTNWIGWVRQMPGKGLEWMGIIYPDDSDTRYSPSFQGQVTISADKSINTAYLHWNSLKSSDTAIYYCARGANWFDPWGQGTLVTVSS VL: EIVLTQSPGILSLSPGKRATLSCRASQSVSSNFLAWYQQKPGQAPRLLIYGTSSRANGIPDRFSGSGSGTDFTLTISGLEPEDFAEYYCQQYGSSVTFGQGTRLEIK
0.247 µM | 6.61 | 818 counts | Table 1 Line # 53 antibody (SP_Plasma_cell) (antibody, human IgG4, V domains shown, Cloned with human IgG4/human Igk constants for Kd; barcode counts are of the source cell's own IgG) VH: EIQLVESGGGLVQPGRSLRLSCAASGFTFDDYAMHWVRQAPGKGLEWVSGINWNNGSLGYADSVKGRFTISRDNAKNSLYLQMNSLRTEDTALYYCVKDTGSWASYYGMDVWGHGTTVTVSS VL: DIQMTQSPSSLSASIGDRVTITCRASQGIRNDLGWYQQKPGKAPKRLIYAASSLQSGVPSRFSGSGSGTEFTLTISSLQPEDFATYYCLQHNSYPYTFGQGTKLEIK
0.0135 µM | 7.87 | 815 counts | Table 1 Line # 54 antibody (SP_Plasma_cell) (antibody, human IgG4, V domains shown, Cloned with human IgG4/human Igk constants for Kd; barcode counts are of the source cell's own IgG) VH: QVQLVQSGAEVKKPGASVKVSCKASGYTFTNYGISWVRQAPGQGLEWMGWISVYNGNTNYAQKLQGRVTMTTDTSTSTAYMEVRSLRSDDTAVYYCARGVNWNYVFDYWGQGTLVTVSS VL: DIQMTQSPSSLSASVGDRVTITCRASQGIRNDLGWYQQKPGKAPKRLIYVVSSLQSGVPSRFSGSGSGTEFTLTISSLQPEDFATYYCLQHNSYPWTFGQGTKVEIK
0.118 µM | 6.93 | 5520 counts | Table 1 Line # 40 antibody (SP_Plasma_cell) (antibody, human IgG4, V domains shown, Cloned with human IgG4/human Igk constants for Kd; barcode counts are of the source cell's own IgG) VH: QVQLQESGPGLVKPSETLSLTCTISGGSISTYYWSWIRQPPGKGLEWIGYIYYSGNTNYNPSLKSRVTISVDTSKNQFSLKLNSVTAADTAVYYCARHRGSYVYGMDVWGQGTTVTVSS VL: DIQMTQSPSSLSASLVDRVTITCRASQTISSYLNWYQQKPGKAPKLLIYGASILQSGVPSRFSGSGSGTDFTLTISSLQPEDHAVYFCQQSYSSPTFGGGTKVEIK
0.197 µM | 6.71 | 6230 counts | Table 1 Line # 37 antibody (SP_B_cell) (antibody, human IgG4, V domains shown, Cloned with human IgG4/human Igk constants for Kd; barcode counts are of the source cell's own IgG) VH: QVHLVESGGDVVQPGRSLRLSCAASGFTFSYYGMHWVRQAPFKGLEWVAVIWYDGSNKYYADSVKGRFTITRDNSKNTVYLQMNSLRAEDTAIYYCARWGGFGVTGTHLDYWGQGTLVTVSS VL: DIQLTQSPSLLSASVGDRVTITCWASQDIAGHFAWYQQKPGTVPKLLIYAISTLDSGVPSRFSGSRSGTEFTLTISSLQPEDFATYYCQHLNSYPYTFGQGTKLEIK
0.158 µM | 6.8 | 5050 counts | Table 1 Line # 4 antibody (BM_Plasma_cell) (antibody, human IgG4, V domains shown, Cloned with human IgG4/human Igk constants for Kd; barcode counts are of the source cell's own IgG) VH: EVQLVESGGGLVQPGRSLRLSCAASGFTFDDFAMHWVRQAPGKGLEWVSGISWNSGSIGYADSVKGRFTISRDNAKNSLYLQMNSLRAEDTALYYCTKDSSSSWYGYFDLWGRGTLVTVSS VL: not shown
0.0582 µM | 7.24 | 2930 counts | Table 1 Line # 13 antibody (BM_Plasma_cell) (antibody, human IgG4, V domains shown, Cloned with human IgG4/human Igk constants for Kd; barcode counts are of the source cell's own IgG) VH: EVQLVESGGEMIRPGGSLRLSCAASGFIFDDYGMSWIRQAPGKGLEWVSGINWNGGHTGYSDSVKGRFTISRDNAKNSLYLQMNSLRAEDTALYHCVRDSSSSWYGVFDYWGQGTLVTVSS VL: DIQMTQSPSSLSASVGDRVTITCRASQGISNSLAWYQQKPGTVPKLLIFAASTLLSGIPSRFSGGGSGTDFTLTISSLQPEDVATYYCQNYNSAPRTFGQGTKVEIK
0.0275 µM | 7.56 | 3210 counts | Table 1 Line # 11 antibody (BM_Plasma_cell) (antibody, human IgG4, V domains shown, Cloned with human IgG4/human Igk constants for Kd; barcode counts are of the source cell's own IgG) VH: EVQLVESGGGLVQPGRSLRLSCAASGFTFDDYAMHWVRQAPGKGLEWVSGISWNSGSIGYADSVKGRFTISRDNAKNSLYLQMNSLRAEDTALYYCARDYSSAWYGYFDSWGQGTLVTVSS VL: DIQMTQSPSSLSASVGDRVTITCRASQGINNYLAWYQQKPGKIPKLLIFTASTLQSGVPSRFSGSGSGTDFTLTINSLQPEDVATYYCQNYNSVPRTFGQGTKVEIK
0.416 µM | 6.38 | 11200 counts | Table 1 Line # 1 antibody (BM_Plasma_cell) (antibody, human IgG4, V domains shown, Cloned with human IgG4/human Igk constants for Kd; barcode counts are of the source cell's own IgG) VH: EVQLVESGGGLVKPGGSLRLSCAASGFTFSSYSMNWVRQAPGKGLEWVSSISSSSSYIYYADSVKGRFTISRDNAKNSLYLQMNSLRAEDTAVYYCASLAARPFWGQGTMVTVSS VL: DIQMTQSPSSVSASVGDRVTITCRASQGISSWLAWYQQKPGRAPKLLIYAASSLQSGVPSRFSGSGSGTDFTLTISSLQPEDFATYYCQQANSFPLTFGGGTKVEIK
0.132 µM | 6.88 | 1200 counts | Table 1 Line # 49 antibody (SP_Plasma_cell) (antibody, human IgG4, V domains shown, Cloned with human IgG4/human Igk constants for Kd; barcode counts are of the source cell's own IgG) VH: EVHLLESGGGFIQPGGSLRLSCAASGFTFSTYAMNWVRLAPGKGLEWVSTISGSGGFTSYTDSVQGRFTISRDNSKNKLYLQINNLTAEDTAVYYCAKDRRIVGATGFDYWGQGALVTVSS VL: DIQMTQSPSSLSASAGDRVTITCRASQSISSYLNWYQQKPGKAPKLLIYAASSLQSGVPSRFSGSGSGTDFTLTISSLQPEDSATYYCQQSYGFHTFGQGTRLEIK
0.127 µM | 6.9 | 2080 counts | Table 1 Line # 42 antibody (SP_Plasma_cell) (antibody, human IgG4, V domains shown, Cloned with human IgG4/human Igk constants for Kd; barcode counts are of the source cell's own IgG) VH: EVQLLESGGGLVQPGGSLRLSCAASGFTFISYTLSWVRQAPGKGLEWVSAISGSGGSTYYVDSVKGRFTISRDNSRNTLYLQMNSLRAEDTAVYYCAKDLGSTVYWGQGTLVTVSS VL: not shown
